In US20250051413A1 (ASKGENE PHARMA, published 2025):

Biological target: human IL-12 receptor (b1 and b2 chain) (human, UniProt P42701 24-662; Q99665 24-862)
Test: cell-based or functional assay

Chain of human IL-12 receptor (b1 and b2 chain) (Q99665 24-862, chain 2 of 2, other chains not shown): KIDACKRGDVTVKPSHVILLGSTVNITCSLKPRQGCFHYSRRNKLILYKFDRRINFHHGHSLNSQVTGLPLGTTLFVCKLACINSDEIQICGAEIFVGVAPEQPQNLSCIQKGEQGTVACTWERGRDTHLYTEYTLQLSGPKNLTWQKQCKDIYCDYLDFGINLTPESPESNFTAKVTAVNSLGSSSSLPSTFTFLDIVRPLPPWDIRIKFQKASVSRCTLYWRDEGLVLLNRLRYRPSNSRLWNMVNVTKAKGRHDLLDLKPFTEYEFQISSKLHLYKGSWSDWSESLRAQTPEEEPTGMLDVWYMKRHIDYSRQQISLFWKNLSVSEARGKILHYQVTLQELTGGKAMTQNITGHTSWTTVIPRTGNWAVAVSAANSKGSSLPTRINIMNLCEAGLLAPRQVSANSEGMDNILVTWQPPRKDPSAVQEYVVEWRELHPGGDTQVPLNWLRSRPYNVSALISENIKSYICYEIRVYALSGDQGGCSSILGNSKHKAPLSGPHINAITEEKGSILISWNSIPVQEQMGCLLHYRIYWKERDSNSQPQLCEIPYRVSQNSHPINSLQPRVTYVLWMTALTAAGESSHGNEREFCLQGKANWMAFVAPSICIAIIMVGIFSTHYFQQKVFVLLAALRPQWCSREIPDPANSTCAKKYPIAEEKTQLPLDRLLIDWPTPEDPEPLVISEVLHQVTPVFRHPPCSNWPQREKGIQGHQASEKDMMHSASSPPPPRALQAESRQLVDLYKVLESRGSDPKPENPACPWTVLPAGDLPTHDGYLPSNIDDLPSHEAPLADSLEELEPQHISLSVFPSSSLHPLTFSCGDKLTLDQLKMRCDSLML

B1: ASKG129C (Fc fusion)
chain 1: QVQLVQSGVEVKKPGASVKVSCKASGYTFTNYYMYWVRQAPGQGLEWMGGINPSNGGTNFNEKFKNRVTLTTDSSTTTAYMELKSLQFDDTAVYYCARRDYRFDMGFDYWGQGTTVTVSSASTKGPSVFPLAPSSKSTSGGTAALGCLVKDYFPEPVTVSWNSGALTSGVHTFPAVLQSSGLYSLSSVVTVPSSSLGTQTYICNVNHKPSNTKVDKKAEPKSCDKTHTCPPCPAPEAAGAPSVFLFPPKPKDTLYITREPEVTCVVVDVSHEDPEVKFNWYVDGVEVHNAKTKPREEQYNSTYRVVSVLTVLHQDWLNGKEYKCKVSNKALPAPIEKTISKAKGQPREPQVYTLPPSREEMTKNQVSLTCLVKGFYPSDIAVEWESNGQPENNYKTTPPVLDSDGSFFLYSKLTVDKSRWQQGNVFSCSVMHEALHNHYTQKSLSLSPGGGGSGGGGSAAGGGGSGGGGSDIQMTQSPSSLSASVGDRVTITCRASQGISSWLAWYQQKPEKAPKSLIYAASSLQSGVPSRFSGSGSGTDFTLTISSLQPEDFATYYCQQYNIYPYTFGQGTKLEIKSGGGGSGGGGSGGGGSEVQLVQSGAEVKKPGESLKISCKGSGYSFTTYWLGWVRQMPGKGLDWIGIMSPVDSDIRYSPSFQGQVTMSVDKSITTAYLQWNSLKASDTAMYYCARRRPGQGYFDFWGQGTLVTVSS
chain 2: EVQLVESGGGLVQPGGSLRLSCAASGYTVSSYCMGWFRQAPGKGREGVSAIDSDGSVSYADSVKGRFTISKDNSKNTLYLQMNSLRAEDTAVYFCAADLCWVDQDQGEYNTWGQGTLVTVSSGSEPKSSDKTHTCPPCPAPEAAGGPSVFLFPPKPKDTLYITREPEVTCVVVDVSHEDPEVKFNWYVDGVEVHNAKTKPREEQYNSTYRVVSVLTVLHQDWLNGKEYKCKVSNKALPAPIEKTISKAKGQPREPQVYTLPPSREEMTKNQVSLTCLVKGFYPSDIAVEWESNGQPENNYKTTPPVLDSDGSFFLYSKLTVDKSRWQQGNVFSCSVMHEALHNHYTQKSLSLSPGGGGSGGGGSAAGGGGSGGGGSDIQMTQSPSSLSASVGDRVTITCRASQGISSWLAWYQQKPEKAPKSLIYAASSLQSGVPSRFSGSGSGTDFTLTISSLQPEDFATYYCQQYNIYPYTFGQGTKLEIKSGGGGSGGGGSGGGGSEVQLVQSGAEVKKPGESLKISCKGSGYSFTTYWLGWVRQMPGKGLDWIGIMSPVDSDIRYSPSFQGQVTMSVDKSITTAYLQWNSLKASDTAMYYCARRRPGQGYFDFWGQGTLVTVSS
  EC50 of p-STAT4 induction in human PBMC, CD4+ T cells: 2.52 nM
  EC50 of p-STAT4 induction in human PBMC, CD8+ T cells: 2.09 nM
  EC50 of p-STAT4 induction in human PBMC, NK cells: 3.75 nM
  fold decrease in cytokine releasing assay with human PBMC, activity relative to IL-12: ~1000 times
